In patent publication US12397037B2, “Methods and compositions for immunomodulation” (CHILDREN'S MEDICAL CENTER CORPORATION, priority 2014, dated 2025):

What was measured:
[1] = tested on: C57BL/6 recipients of fully mismatched BALB/c cardiac allografts; assay: Fully MHC mismatched cardiac allograft survival (BALB/c into C57BL/6); assay type: in vivo, mice; conditions: for mean graft survival: untreated controls 6.5 days
Excerpt: FIG. 2 depicts graft survival curves. Cardiac allografts (Balb/c) were transplanted into fully MHC mismatched recipients (C57BL/6). Unmanipulated recipients reject these allografts within 7-8 days.
FIG. 3 depicts graft survival curves. Cardiac allografts (Balb/c) were transplanted into fully MHC mismatched recipients (C57BL/6). Unmanipulated recipients reject these allografts within 7-8 days.
FIG. 4 depicts graft survival curves of C56BL6 recipient mice after transplantation with Balb/C donor hearts.
Described herein is the treatment of C57BL/6 recipients of fully mismatched BALB/c cardiac allografts with Sema3F.
Ba1b/C donor hearts were transplanted into C56BL6 mice.

[2] = tested on: VEGF promoter; assay: VEGF promoter luciferase assay in U87MG cells; assay type: cell-based, human
Description: FIGS. 31A-31B depict U87MG cells transiently co-transfected with a full-length human VEGF promoter luciferase plasmid and a pGL4.74 [hRluc/TK] plasmid as an internal control. Cells were treated with SEMA3F (640 ng/ml for 30 minutes) prior to the addition of DFO (250 μM) or the culture of cells in a hypoxia chamber (1% 02). After 18 hours, VEGF promoter luciferase activity was analyzed. FIG. 31C depicts a graph of U87MG cells transiently cotransfected with our VEGF promoter luciferase and pGL4.74 [hRluc/TK] plasmids and with either a pcDNA3.1 empty vector or our constitutively active Akt (2DAkt). The cells were treated with SEMA3F for 30 minutes prior to the addition of DFO. After 18 hours, VEGF promoter luciferase activity was analyzed. FIG. 31D depicts a graph of parental U87MG cells treated with SEMA3F, rapamycin (10 nM), Torin 1 (10 nM) alone or in combination as indicated for 30 minutes prior to the addition of DFO, and culture supernatants were collected after 18 hours; VEGF protein levels were analyzed by ELISA. In each panel data are representative of 3 independent experiments. Bar graphs represent the mean±SD of n=3 experiments performed in triplicate, *, p<0.01 vs. control.
SEMA3F inhibits hypoxia-induced production of VEGF via the mTOR pathway. The local expression and regulation of VEGF is key to many physiological and pathological processes (40, 41). These findings indicate that SEMA3F can target the transcriptional activation of VEGF via its ability to target mTOR kinase activity (36, 42). To test the effect of SEMA3F on the regulation of VEGF expression, U87MG cells were transfected with a full-length 2.6 kb VEGF promoter-luciferase construct and exposed to the hypoxia mimetic agent desferrioxamine (DFO) or hypoxia (1% 02). […] To test the relative effect of SEMA3F on mTORC1/C2, U87MG cells transiently co-transfected with the 2DAkt construct and the full length VEGF promoter reporter construct, and the cells cultured in the absence or presence of SEMA3F. […] Finally, the effect of SEMA3F on the secretion of VEGF into conditioned media (by ELISA) was determined in the absence or presence of DFO.
Transfection and Luciferase assay: U87MG cells were transiently transfected with plasmid constructs (pcDNA3.1, WT mTOR, 2DAkt, VEGF luciferase reporter plasmid or pGL4.74 [hRluc/TK]) as indicated using Lipofectamine 2000 reagent (Life Technologies) according to the manufacturer's instructions. After 18 hours, cells were treated as outlined in each experimental design. VEGF promoter activity was analyzed using a Dual-Luciferase Reporter Assay System (Promega), and luciferase activity was normalized by Renilla luciferase as an internal control.

[3] = tested on: VEGF; assay: VEGF protein in conditioned media by ELISA, U87MG cells; assay type: cell-based, human; conditions: SEMA3F, rapamycin 10 nM or Torin 1 10 nM, 30 minutes prior to DFO, supernatants after 18 hours
Description: The VEGF-A (DVE00) ELISA kit was obtained from R&D Systems (Minneapolis, MN). […] Desferrioxamine (DFO) was purchased from Sigma-Aldrich, and the MEK inhibitor (U0126) was purchased from EMD-Millipore (Billerica, MA). pGL4.74 [hRluc/TK] vector (Promega Madison, WI) was used as an internal control in luciferase assay.

[4] = tested on: Jurkat T cells; assay: Western blot of pAkt (S473) in NRP-2-expressing Jurkat T cells; assay type: cell-based, human; conditions: 30 min
Description: FIG. 20 depicts the results of Western blots of NRP-2-expressing Jurkat T cells treated with increasing concentrations of SEMA3F for 30 min. Expression of pAkt (S473) was evaluated by Western blot.
In addition, as illustrated in FIG. 20 NRP-2-expressing Jurkat T cells were treated with increasing concentrations of SEMA3F for 30 min. and expression of pAkt (S473) was evaluated by Western blot. Expression is reduced following treatment with high concentrations of SEMA3F (>600 ng/ml)
Western blotting: Proteins within each sample were separated by SDS-PAGE and transferred to nitrocellulose membranes. The membranes were blocked with 4% skimmed milk in TBS-T (0.1% Tween 20 in tris-buffered saline [TBS]) for 30 minutes, followed by incubation with the primary antibody. After washing with TBS-T, membranes were incubated with the appropriate horseradish peroxidase-conjugated secondary antibody, and immunoreactivity was detected by using ECL detection reagents.

B1: SEMA3F: Human recombinant full-length His-Myc-tagged SEMA3F, secreted by transfected 293T cells and purified; class 3 semaphorin, NRP-2 ligand (protein, listed as Homo sapiens)
chain: MLVAGLLLWASLLTGAWPSFPTQDHLPATPRVRLSFKELKATGTAHFFNFLLNTTDYRILLKDEDHDRMYVGSKDYVLSLDLHDINREPLIIHWAASPQRIEECVLSGKDVNGECGNFVRLIQPWNRTHLYVCGTGAYNPMCTYVNRGRRAQATPWTQTQAVRGRGSRATDGALRPMPTAPRQDYIFYLEPERLESGKGKCPYDPKLDTASALINEELYAGVYIDFMGTDAAIFRTLGKQTAMRTDQYNSRWLNDPSFIHAELIPDSAERNDDKLYFFFRERSAEAPQSPAVYARIGRICLNDDGGHCCLVNKWSTFLKARLVCSVPGEDGIETHFDELQDVFVQQTQDVRNPVIYAVFTSSGSVFRGSAVCVYSMADIRMVFNGPFAHKEGPNYQWMPFSGKMPYPRPGTCPGGTFTPSMKSTKDYPDEVINFMRSHPLMYQAVYPLQRRPLVVRTGAPYRLTTIAVDQVDAADGRYEVLFLGTDRGTVQKVIVLPKDDQELEELMLEEVEVFKDPAPVKTMTISSKRQQLYVASAVGVTHLSLHRCQAYGAACADCCLARDPYCAWDGQACSRYTASSKRRSRRQDVRHGNPIRQCRGFNSNANKNAVESVQYGVAGSAAFLECQPRSPQATVKWLFQRDPGDRRREIRAEDRFLRTEQGLLLRALQLSDRGLYSCTATENNFKHVVTRVQLHVLGRDAVHAALFPPLSMSAPPPPGAGPPTPPYQELAQLLAQPEVGLIHQYCQGYWRHVPPSPREAPGAPRSPEPQDQKKPRNRRHHPPDT
modifications: His-Myc tag
notes: Human recombinant full-length His-Myc-tagged SEMA3F, secreted by transfected 293T cells and purified; class 3 semaphorin, NRP-2 ligand
With B1 the “rejection in NRP-2KO mice” value ([1]; NRP-2KO recipients) was “can inhibit rejection”, the mean graft survival ([1]; Sema3F administered via adenovirus, n=4 mice) was over 22 days and the mean graft survival ([1]; Sema3F administered via i.p. injection, n=16 mice) was 23.4 days. For the same molecule, the “CD3, CD4, CD8 and Treg populations by FACS” value ([1]; day 5 post transplantation, mice of FIG. 2 (adenovirus)) was “no differences are observed”, the “inhibition of DFO-induced VEGF promoter activity” value ([2]; SEMA3F 640 ng/ml pre-treatment 30 minutes, DFO 250 μM, 18 hours) was 43% and the “reduction of hypoxia-induced VEGF promoter activity” value ([2]; SEMA3F 640 ng/ml, 18 hours culture in 1% O2) was 44%. For the same molecule, the “VEGF promoter activity in 2DAkt transfected cells” value ([2]; SEMA3F 30 minutes prior to DFO) was “failed to attenuate VEGF promoter activity”, the “DFO-induced VEGF protein secretion” value [3] was “significantly reduced” and the “concentration of SEMA3F at which expression of pAkt (S473) is reduced” value [4] was over 600 ng/ml.
